Measurements reported in PMC4859490, “Why p-OMe- and p-Cl-β-Methylphenethylamines Display Distinct Activities upon MAO-B Binding” (PLoS ONE, 2016).

Substrate: COc1ccc(C(C)CN)cc1
Assay: purified protein
Assay type: biochemical, Homo sapiens
Conditions: FAD substrate binding site (modelled: aromatic cage facing FAD, Tyr398/Tyr435; methoxyl oxygen near Cys172)

B1: MAO-B (Homo sapiens) (protein)
chain: SNKCDVVVVGGGISGMAAAKLLHDSGLNVVVLEARDRVGGRTYTLRNQKVKYVDLGGSYVGPTQNRILRLAKELGLETYKVNEVERLIHHVKGKSYPFRGPFPPVWNPITYLDHNNFWRTMDDMGREIPSDAPWKAPLAEEWDNMTMKELLDKLCWTESAKQLATLFVNLCVTAETHEVSALWFLWYVKQCGGTTRIISTTNGGQERKFVGGSGQVSERIMDLLGDRVKLERPVIYIDQTRENVLVETLNHEMYEAKYVISAIPPTLGMKIHFNPPLPMMRNQMITRVPLGSVIKCIVYYKEPFWRKKDYCGTMIIDGEEAPVAYTLDDTKPEGNYAAIMGFILAHKARKLARLTKEERLKKLCELYAKVLGSLEALEPVHYEEKNWCEEQYSGGCYTTYFPPGILTQYGRVLRQPVDRIYFAGTETATHWSGYMEGAVEAGERAAREILHAMGKIPEDEIWQSEPESVDVPAQPITTTFLERHLPSVPGLLRLIGLTTIFSATALGFLAHKRGLLVRV
- Km: 87 ± 8 µM
- kcat: 0.233 ± 0.0167 s⁻¹
